# B1: SMOC2 (parent)
# chain: DCAGSPQKPLCASDGRTFLSRCEF
# Variants of: B1
# Experiment: protein stability index of a GFP-peptide fusion (GPS, HEK-293T) (PSI 1-6); higher = more stable
# Conditions: c terminus: a fixed tail appended
# 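Also: lentivirally expressed fusions sorted by FACS into six bins by GFP to DsRed ratio, PSI derived from sequencing read proportions per bin multiplied by bin number.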
row,Variant,protein stability index
1,DCAGSPQKPLCACDGRTFLSRCEF,2.16
2,DCAGSPQKPLCADDGRTFLSRCEF,3.16
3,DCAGSPQKPLCAEDGRTFLSRCEF,3.25
4,DCAGSPQKPLCAADGRTFLSRCEF,3.39
5,DCAGSPQKPLEASDGRTFLSRCEF,3.46
6,DCAGSPQKPLDASDGRTFLSRCEF,3.79
7,DCAGSPQKPLFASDGRTFLSRCEF,1.8
8,DCAGSPQKPLGASDGRTFLSRCEF,2.04
9,DCAGSPQKPLWASDGRTFLSRCEF,2.41
10,DCAGSPQKPLPASDGRTFLSRCEF,3.47
11,DCAGSPQKPLQASDGRTFLSRCEF,2.82
12,DCAGSPQKPLHASDGRTFLSRCEF,2.73
13,DCAGSPQKPLNASDGRTFLSRCEF,2.67
14,DCAGSPQKPLTASDGRTFLSRCEF,2.48
15,DCAGSPQKPLVASDGRTFLSRCEF,2.66
16,DCAGSPQKPLLASDGRTFLSRCEF,3.3
17,DCAGSPQKPLSASDGRTFLSRCEF,3.19
18,DCAGSPQKPLAASDGRTFLSRCEF,2.7
19,DCAGSPQKPLYASDGRTFLSRCEF,2.58
20,DCAGSPQKPLRASDGRTFLSRCEF,2.28
21,DCAGSPQKPLKASDGRTFLSRCEF,2.72
22,DCAGSPQKPLMASDGRTFLSRCEF,3.23
23,DCAGSPQKPLIASDGRTFLSRCEF,2.56
24,DCAGSPQKPLCNSDGRTFLSRCEF,2.94

row,Variant,protein stability index
1,DCAGSPQKPLCLSDGRTFLSRCEF,2.56
2,DCAGSPQKPLCSSDGRTFLSRCEF,4.06
3,DCAGSPQKPLCISDGRTFLSRCEF,2.5
4,DCAGSPQKPLCGSDGRTFLSRCEF,2.29
5,DCAGSPQKPLCCSDGRTFLSRCEF,1.59
6,DCAGSPQKPLCDSDGRTFLSRCEF,2.88
7,DCAGSPQKPLCVSDGRTFLSRCEF,2.97
8,DCAGSPQKPLCQSDGRTFLSRCEF,3.1
9,DCAGSPQKPLCESDGRTFLSRCEF,3.96
10,DCAGSPQKPLCMSDGRTFLSRCEF,2.7
11,DCAGSPQKPLCFSDGRTFLSRCEF,1.89
12,DCAGSPQKPLCTSDGRTFLSRCEF,3.32
13,DCAGSPQKPLCRSDGRTFLSRCEF,2.14
14,DCAGSPQKPLCPSDGRTFLSRCEF,3.11
15,DCAGSPQKPLCHSDGRTFLSRCEF,2.18
16,DCAGSPQKPLCYSDGRTFLSRCEF,2.47
17,DCAGSPQKPLCKSDGRTFLSRCEF,2.59
18,DCAGSPQKPLCWSDGRTFLSRCEF,1.51
19,DCAGSPQFPLCASDGRTFLSRCEF,3.62
20,DCAGSPQMPLCASDGRTFLSRCEF,2.23
21,DCAGSPQTPLCASDGRTFLSRCEF,2.69
22,DCAGSPQLPLCASDGRTFLSRCEF,2.41
23,DCAGSPQRPLCASDGRTFLSRCEF,2.83
24,DCAGSPQIPLCASDGRTFLSRCEF,2.68

row,Variant,protein stability index
1,DCAGSPQEPLCASDGRTFLSRCEF,2.17
2,DCAGSPQYPLCASDGRTFLSRCEF,1.9
3,DCAGSPQVPLCASDGRTFLSRCEF,2.13
4,DCAGSPQDPLCASDGRTFLSRCEF,3.33
5,DCAGSPQWPLCASDGRTFLSRCEF,2.46
6,DCAGSPQQPLCASDGRTFLSRCEF,2.77
7,DCAGSPQNPLCASDGRTFLSRCEF,2.3
8,DCAGSPQHPLCASDGRTFLSRCEF,2.48
9,DCAGSPQSPLCASDGRTFLSRCEF,2.34
10,DCAGSPQGPLCASDGRTFLSRCEF,2.94
11,DCAGSPQKILCASDGRTFLSRCEF,2.04
12,DCAGSPQKHLCASDGRTFLSRCEF,2.36
13,DCAGSPQKVLCASDGRTFLSRCEF,2.4
14,DCAGSPQKDLCASDGRTFLSRCEF,2.97
15,DCAGSPQKMLCASDGRTFLSRCEF,2.63
16,DCAGSPQKWLCASDGRTFLSRCEF,1.04
17,DCAGSPQKSLCASDGRTFLSRCEF,3.08
18,DCAGSPQKRLCASDGRTFLSRCEF,2.77
19,DCAGSPQKALCASDGRTFLSRCEF,3.42
20,DCAGSPQKCLCASDGRTFLSRCEF,2.65
21,DCAGSPQKTLCASDGRTFLSRCEF,2.69
22,DCAGSPQKKLCASDGRTFLSRCEF,1.85
23,DCAGSPQKQLCASDGRTFLSRCEF,3.13
24,DCAGSPQKYLCASDGRTFLSRCEF,2.47

row,Variant,protein stability index
1,DCAGSPQKGLCASDGRTFLSRCEF,2.73
2,DCAGSPQKFLCASDGRTFLSRCEF,1.99
3,DCAGSPQKELCASDGRTFLSRCEF,2.72
4,DCAGSPQKPRCASDGRTFLSRCEF,2.48
5,DCAGSPQKPQCASDGRTFLSRCEF,4.04
6,DCAGSPQKPWCASDGRTFLSRCEF,2.16
7,DCAGSPQKPSCASDGRTFLSRCEF,2.97
8,DCAGSPQKPPCASDGRTFLSRCEF,2.93
9,DCAGSPQKPACASDGRTFLSRCEF,2.92
10,DCAGSPQKPHCASDGRTFLSRCEF,3.54
11,DCAGSPQKPMCASDGRTFLSRCEF,2.56
12,DCAGSPQKPYCASDGRTFLSRCEF,2.47
13,DCAGSPQKPTCASDGRTFLSRCEF,2.65
14,DCAGSPQKPICASDGRTFLSRCEF,2.63
15,DCAGSPQKPGCASDGRTFLSRCEF,3.23
16,DCAGSPQKPFCASDGRTFLSRCEF,1.82
17,DCAGSPQKPECASDGRTFLSRCEF,3.84
18,DCAGSPQKPVCASDGRTFLSRCEF,2.28
19,DCAGSPQKPDCASDGRTFLSRCEF,3.29
20,DCAGSPQKPCCASDGRTFLSRCEF,2.85
21,DCAGSPQKPKCASDGRTFLSRCEF,3.1
22,DCAGSPQKPNCASDGRTFLSRCEF,2.08
